In paper PMC8761493, “New insights into the phosphorylation of the threonine motif of the β1 integrin cytoplasmic domain” (Life Science Alliance, 2022):
Values belong to the molecule of their own block, whether it stands above or below them. Non-standard residues stand in square brackets, D forms with d. No end group written: not given here. pT = C[C@@H](OP(=O)(O)O)[C@H](N)C(=O)O

Assays:
[1] = target: talin-1 head domain (THD) (UniProt P26039); assay: Microscale thermophoresis (MST) affinity measurement; format: binding; settings: 200 nM Atto488-labeled β1-tail peptide, 20 mM Tris pH 7.5, 200 mM NaCl, 1 mM TCEP, 0.05% Tween-20
Procedure: All MST measurements were performed on a Monolith NT.115 red-blue (Nanotemper) using premium-coated capillaries to reduce non-specific interaction of the proteins with the glass surface. Both interaction partners (ligand and receptor) were transferred into MST buffer (20 mM Tris, pH 7.5, 200 mM sodium chloride, 1 mM tris(2-carboxyethyl)phosphine [TCEP], 0.05% Tween-20) to avoid artifacts derived from buffer mismatches. […] The measurements were carried out at 20% light emitting diode power and 20% and 40% MST power. Data were analyzed using the MO Affinity Analysis Software (Nanotemper).

endogenous SNX17 = assay: Peptide pull-down from whole cell lysate, Western blot; format: binding; settings: Western blot, n = 5
Procedure: (§1) Before use, peptides were immobilized on 25 μl Dynabeads MyOne Streptavidin C1 (10 mg/ml; Invitrogen) in Mammalian Protein Extraction Reagent (Thermo Fisher Scientific) containing protease inhibitors (cOmplete; Roche) and phosphatase inhibitors (Phosphatase Inhibitor Cocktail 2 and 3; Sigma-Aldrich) for 3 h at 4°C. Cell lysates were prepared with MPER containing protease and phosphatase inhibitors and 0.5 mg of supernatant was incubated with the peptide-coated beads at 4°C under constant rotation. For pull-downs with recombinant proteins, synthetic β1 integrin tail peptides were immobilized on 25 μl Dynabeads MyOne Streptavidin C1 (10 mg/ml; Invitrogen) for 3 h at 4°C, incubated with 2% BSA in Mammalian Protein Extraction Reagent (Thermo Scientific Scientific) for 30 min at 4°C to block unspecific binding before adding kindlin-2 or THD (conc 2.5 and 8.5 nM, respectively) and further incubation on a rotator for 2 h at 4°C. After washing the beads three times with lysis buffer, the proteins bound to the beads were eluted using Laemmli buffer, separated on a 10% SDS–PAGE, and analyzed by Western blotting.

endogenous kindlin-2 = assay: as above; format: binding; settings: Western blot, n = 5
Procedure: as §1

kindlin-2 = target: T1, kindlin-2 (Homo sapiens, UniProt Q96AC1); assay: Microscale thermophoresis (MST) affinity measurement; format: binding; settings: 200 nM Atto488-labeled β1-tail peptide, 20 mM Tris pH 7.5, 200 mM NaCl, 1 mM TCEP, 0.05% Tween-20
T1 sequence (Q96AC1 1-680): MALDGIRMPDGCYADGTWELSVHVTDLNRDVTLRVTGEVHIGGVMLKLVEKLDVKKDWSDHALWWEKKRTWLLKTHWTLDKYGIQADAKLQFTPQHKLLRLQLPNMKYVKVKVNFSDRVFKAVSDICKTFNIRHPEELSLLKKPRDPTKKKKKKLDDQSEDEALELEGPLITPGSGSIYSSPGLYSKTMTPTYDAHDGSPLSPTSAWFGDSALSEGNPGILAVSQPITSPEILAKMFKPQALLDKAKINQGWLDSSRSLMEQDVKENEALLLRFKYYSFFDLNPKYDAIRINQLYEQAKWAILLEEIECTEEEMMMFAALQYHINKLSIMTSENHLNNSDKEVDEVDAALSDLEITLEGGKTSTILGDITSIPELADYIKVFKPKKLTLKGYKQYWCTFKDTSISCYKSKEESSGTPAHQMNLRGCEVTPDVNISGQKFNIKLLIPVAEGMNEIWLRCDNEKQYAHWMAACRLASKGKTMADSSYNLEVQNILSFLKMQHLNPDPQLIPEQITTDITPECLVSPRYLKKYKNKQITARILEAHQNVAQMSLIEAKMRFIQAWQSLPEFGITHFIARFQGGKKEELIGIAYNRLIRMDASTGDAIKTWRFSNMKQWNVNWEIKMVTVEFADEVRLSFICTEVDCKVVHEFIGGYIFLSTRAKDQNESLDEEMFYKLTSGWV

[2] = test system: anti-β1-pTpT integrin antibody (Abcam); assay: Integrin peptide ELISA (direct ELISA, immobilized tail peptides); format: binding; settings: antibody dilution range 1:500 to 1:10,000 (Fig 1E)
Procedure: (§2) The plates were blocked with 200 μl PBS containing 3% BSA for 1 h at room temperature and then washed thrice with 200 μl PBS. Different dilutions of the anti–β1-pTpT antibodies (Thermo Fisher Scientific and Abcam) in 100 μl PBS supplemented with 3% BSA were incubated for 2 h at room temperature. After washing thrice with 200 μl PBS, 100 μl of anti-rabbit-IgG HRP-conjugate was added (1:10,000 in PBS supplemented with 3% BS) and incubated for 1 h at room temperature. The plates were washed thrice with 200 μl PBS, developed with 100 μl of ABTS substrate solution (1-Step ABTS; Thermo Fisher Scientific) before measuring absorbance at λ = 405 nm in a SpectraMax ABS Plus plate reader (Molecular Devices).

[3] = test system: anti-β1-pTpT integrin antibody (Thermo Fisher Scientific); assay: as above; format: binding; settings: antibody dilution range 1:500 to 1:10,000 (Fig 1D)
Procedure: as §2

[4] = target: β1-pTpT peptide, N-terminally desthiobiotinylated; assay: pull-down; desthiobiotinylated β1-tail peptides on Dynabeads MyOne Streptavidin C1; 0.5 mg whole cell lysate in MPER with protease and phosphatase inhibitors, 4°C; Western blot and densitometry
FNIII7-10^ΔRGD = assay: AFM-based single-cell force spectroscopy (binding probability); single fibroblast on a concanavalin A-coated cantilever brought onto glass coated with 50 μg/ml FN fragment; contact force 200 pN, contact time ~300 ms, 37°C, 1 μM cilengitide
FNIII7-10^RGD = assay: as above
[5] = target: T2, recombinant talin-1 head domain (THD); assay: MST
T2 chain: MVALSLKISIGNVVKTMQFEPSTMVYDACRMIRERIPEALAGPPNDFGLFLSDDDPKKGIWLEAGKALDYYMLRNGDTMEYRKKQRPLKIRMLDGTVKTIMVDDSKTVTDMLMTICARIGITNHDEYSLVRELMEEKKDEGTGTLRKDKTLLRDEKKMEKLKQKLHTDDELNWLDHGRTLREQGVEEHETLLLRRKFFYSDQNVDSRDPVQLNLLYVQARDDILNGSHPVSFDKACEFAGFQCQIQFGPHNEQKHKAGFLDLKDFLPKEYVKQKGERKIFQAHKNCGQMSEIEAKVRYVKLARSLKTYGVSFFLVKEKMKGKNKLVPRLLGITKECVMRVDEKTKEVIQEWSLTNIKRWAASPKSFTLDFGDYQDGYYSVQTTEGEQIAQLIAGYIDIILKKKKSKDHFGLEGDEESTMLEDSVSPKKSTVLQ

recombinant kindlin-2 = target: T3, recombinant kindlin-2 (UniProt Q8CIB5 1-680); assay: MST
T3 chain: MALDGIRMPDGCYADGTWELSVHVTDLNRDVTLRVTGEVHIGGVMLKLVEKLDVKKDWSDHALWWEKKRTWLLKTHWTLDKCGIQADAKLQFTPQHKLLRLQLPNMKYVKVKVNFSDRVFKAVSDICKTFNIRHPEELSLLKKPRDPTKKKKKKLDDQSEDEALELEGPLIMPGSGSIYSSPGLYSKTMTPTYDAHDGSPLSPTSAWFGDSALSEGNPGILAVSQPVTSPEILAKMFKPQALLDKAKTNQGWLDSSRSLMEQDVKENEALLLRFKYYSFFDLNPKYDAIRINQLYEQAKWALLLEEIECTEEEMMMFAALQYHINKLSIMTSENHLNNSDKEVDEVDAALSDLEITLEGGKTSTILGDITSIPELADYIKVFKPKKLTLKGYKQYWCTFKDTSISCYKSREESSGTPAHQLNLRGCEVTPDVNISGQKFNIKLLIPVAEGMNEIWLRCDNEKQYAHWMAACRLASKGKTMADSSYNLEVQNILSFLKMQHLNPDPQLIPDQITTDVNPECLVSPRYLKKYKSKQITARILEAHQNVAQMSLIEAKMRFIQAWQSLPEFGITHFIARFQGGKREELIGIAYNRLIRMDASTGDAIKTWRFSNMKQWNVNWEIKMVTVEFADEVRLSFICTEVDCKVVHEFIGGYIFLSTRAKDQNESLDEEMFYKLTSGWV

Sequence of talin-1 head domain (THD) (P26039 whole entry, the tested form may be a part): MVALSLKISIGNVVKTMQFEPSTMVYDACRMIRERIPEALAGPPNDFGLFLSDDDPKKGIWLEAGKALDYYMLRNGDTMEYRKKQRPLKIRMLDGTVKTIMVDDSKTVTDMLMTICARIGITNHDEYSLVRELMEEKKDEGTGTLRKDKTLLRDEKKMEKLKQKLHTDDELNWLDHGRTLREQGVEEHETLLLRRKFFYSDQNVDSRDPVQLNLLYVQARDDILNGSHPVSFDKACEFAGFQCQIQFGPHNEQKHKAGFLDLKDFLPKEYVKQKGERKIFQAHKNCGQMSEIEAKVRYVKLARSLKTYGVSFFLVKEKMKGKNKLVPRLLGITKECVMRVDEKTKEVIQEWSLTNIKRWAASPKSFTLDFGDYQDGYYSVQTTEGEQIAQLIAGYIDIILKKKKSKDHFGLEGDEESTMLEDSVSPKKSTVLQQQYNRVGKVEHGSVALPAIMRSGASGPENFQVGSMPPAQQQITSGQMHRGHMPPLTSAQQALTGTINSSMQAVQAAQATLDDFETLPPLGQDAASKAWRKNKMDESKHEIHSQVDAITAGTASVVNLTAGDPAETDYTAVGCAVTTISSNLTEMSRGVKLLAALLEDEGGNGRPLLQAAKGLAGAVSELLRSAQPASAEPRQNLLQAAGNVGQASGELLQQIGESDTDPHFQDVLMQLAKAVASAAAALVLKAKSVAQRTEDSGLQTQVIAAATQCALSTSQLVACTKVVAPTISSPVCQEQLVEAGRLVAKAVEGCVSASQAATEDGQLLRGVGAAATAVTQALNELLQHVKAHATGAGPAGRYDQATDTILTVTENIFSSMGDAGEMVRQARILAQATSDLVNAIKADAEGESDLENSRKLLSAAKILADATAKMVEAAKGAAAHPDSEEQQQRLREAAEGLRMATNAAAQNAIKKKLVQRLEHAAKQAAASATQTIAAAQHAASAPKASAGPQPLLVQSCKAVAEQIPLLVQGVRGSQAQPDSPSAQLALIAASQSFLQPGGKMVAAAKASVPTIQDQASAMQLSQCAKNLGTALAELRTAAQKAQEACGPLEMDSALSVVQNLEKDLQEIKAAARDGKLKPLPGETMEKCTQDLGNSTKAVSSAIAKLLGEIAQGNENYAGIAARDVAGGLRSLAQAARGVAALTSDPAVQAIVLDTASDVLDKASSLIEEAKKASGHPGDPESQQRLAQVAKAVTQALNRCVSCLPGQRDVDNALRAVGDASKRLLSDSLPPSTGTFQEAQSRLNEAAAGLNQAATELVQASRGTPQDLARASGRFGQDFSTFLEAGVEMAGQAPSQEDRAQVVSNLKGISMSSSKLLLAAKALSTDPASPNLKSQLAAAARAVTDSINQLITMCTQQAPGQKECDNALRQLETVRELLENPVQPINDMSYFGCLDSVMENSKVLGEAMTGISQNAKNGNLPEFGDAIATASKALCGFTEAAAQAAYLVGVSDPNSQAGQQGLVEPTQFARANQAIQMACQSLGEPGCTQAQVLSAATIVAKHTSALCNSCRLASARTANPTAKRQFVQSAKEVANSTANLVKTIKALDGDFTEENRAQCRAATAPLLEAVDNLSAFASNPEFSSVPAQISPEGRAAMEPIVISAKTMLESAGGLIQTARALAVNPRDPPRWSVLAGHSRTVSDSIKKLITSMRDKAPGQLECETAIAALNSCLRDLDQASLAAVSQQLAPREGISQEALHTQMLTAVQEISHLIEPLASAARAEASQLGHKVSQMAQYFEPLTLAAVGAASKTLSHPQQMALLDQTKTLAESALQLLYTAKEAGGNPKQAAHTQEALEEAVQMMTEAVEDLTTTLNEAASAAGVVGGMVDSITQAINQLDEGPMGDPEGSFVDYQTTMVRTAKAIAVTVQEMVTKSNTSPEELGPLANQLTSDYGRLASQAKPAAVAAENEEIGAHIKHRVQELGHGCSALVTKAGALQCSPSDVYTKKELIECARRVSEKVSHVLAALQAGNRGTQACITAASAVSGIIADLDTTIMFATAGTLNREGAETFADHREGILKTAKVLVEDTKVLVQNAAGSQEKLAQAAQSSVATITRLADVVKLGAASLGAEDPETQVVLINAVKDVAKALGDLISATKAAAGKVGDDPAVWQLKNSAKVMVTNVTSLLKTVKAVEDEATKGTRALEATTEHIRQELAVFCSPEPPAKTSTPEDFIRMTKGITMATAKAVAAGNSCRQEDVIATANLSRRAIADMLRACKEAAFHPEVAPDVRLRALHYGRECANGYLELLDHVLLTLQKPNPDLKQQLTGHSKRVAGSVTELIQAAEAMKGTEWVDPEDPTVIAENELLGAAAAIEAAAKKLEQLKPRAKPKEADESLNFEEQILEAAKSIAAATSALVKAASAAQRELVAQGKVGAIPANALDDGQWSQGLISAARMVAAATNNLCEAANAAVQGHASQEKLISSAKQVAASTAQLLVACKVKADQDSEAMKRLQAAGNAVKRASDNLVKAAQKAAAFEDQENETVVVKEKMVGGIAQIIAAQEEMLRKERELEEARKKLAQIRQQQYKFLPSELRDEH
Sequence of β1-TT/EE integrin on β1-KO fibroblasts (P09055 whole entry, looked up): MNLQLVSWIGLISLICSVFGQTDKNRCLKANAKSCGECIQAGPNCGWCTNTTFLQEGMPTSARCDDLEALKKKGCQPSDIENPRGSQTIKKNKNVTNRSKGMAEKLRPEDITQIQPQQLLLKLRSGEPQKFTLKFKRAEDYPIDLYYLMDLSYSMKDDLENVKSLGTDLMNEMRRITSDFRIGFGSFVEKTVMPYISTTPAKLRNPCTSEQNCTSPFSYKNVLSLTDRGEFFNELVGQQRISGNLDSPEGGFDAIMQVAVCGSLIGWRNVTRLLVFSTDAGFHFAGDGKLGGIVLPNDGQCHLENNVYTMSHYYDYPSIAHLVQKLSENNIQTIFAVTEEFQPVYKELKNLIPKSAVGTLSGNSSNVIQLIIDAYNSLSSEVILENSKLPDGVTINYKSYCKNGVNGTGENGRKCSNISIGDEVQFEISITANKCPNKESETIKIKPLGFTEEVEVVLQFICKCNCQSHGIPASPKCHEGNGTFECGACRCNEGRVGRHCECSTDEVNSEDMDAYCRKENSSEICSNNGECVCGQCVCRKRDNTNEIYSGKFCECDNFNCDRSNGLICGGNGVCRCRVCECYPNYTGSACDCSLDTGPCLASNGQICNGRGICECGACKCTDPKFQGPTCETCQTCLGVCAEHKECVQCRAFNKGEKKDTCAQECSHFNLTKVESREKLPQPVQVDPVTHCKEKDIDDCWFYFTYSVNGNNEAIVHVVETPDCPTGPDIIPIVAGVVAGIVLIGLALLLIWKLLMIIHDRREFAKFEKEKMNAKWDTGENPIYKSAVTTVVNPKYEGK
Sequence of β1-TT/AA integrin on β1-KO fibroblasts (P09055 whole entry, looked up): as above
Sequence of β1-TT/DD integrin on β1-KO fibroblasts (P09055 whole entry, looked up): as above

Kd [1]: 140 ± 20 µM
Molecule: CC[C@H](C)[C@H](NC(=O)[C@@H]1CCCN1C(=O)[C@H](CC(N)=O)NC(=O)[C@H](CCC(=O)O)NC(=O)CNC(=O)[C@@H](NC(=O)[C@H](CC(=O)O)NC(=O)[C@H](Cc1c[nH]c2ccccc12)NC(=O)[C@H](CCCCN)NC(=O)[C@H](C)NC(=O)[C@H](CC(N)=O)NC(=O)[C@H](CCSC)NC(=O)[C@H](CCCCN)NC(=O)[C@H](CCC(=O)O)NC(=O)[C@H](CCCCN)NC(=O)[C@H](CCC(=O)O)NC(=O)[C@H](Cc1ccccc1)NC(=O)[C@H](CCCCN)NC(=O)[C@H](C)NC(=O)[C@H](Cc1ccccc1)NC(=O)[C@H](CCC(=O)O)NC(=O)[C@H](CCCNC(=N)N)NC(=O)[C@H](CCCNC(=N)N)NC(=O)[C@H](CC(=O)O)NC(=O)[C@@H](N)Cc1c[nH]cn1)[C@@H](C)O)C(=O)N[C@@H](Cc1ccc(O)cc1)C(=O)N[C@@H](CCCCN)C(=O)N[C@@H](CO)C(=O)N[C@@H](C)C(=O)N[C@H](C(=O)N[C@H](C(=O)N[C@H](C(=O)N[C@H](C(=O)N[C@H](C(=O)N[C@@H](CC(N)=O)C(=O)N1CCC[C@H]1C(=O)N[C@@H](CCCCN)C(=O)N[C@@H](Cc1ccc(O)cc1)C(=O)N[C@@H](CCC(=O)O)C(=O)NCC(=O)N[C@@H](CCCCN)C(=O)O)C(C)C)C(C)C)[C@@H](C)O)[C@@H](C)O)C(C)C [β1-WT]

Molecule: EYEFEPDKVDTGAKGTKMAKNEKKFRNYTVHNIWESRKVAP-OH [scrambled, scrambled β1 integrin cytoplasmic tail peptide used as control, reference compound]
SNX17 binding to the peptide (in words) (endogenous SNX17): lost
kindlin-2 binding to the peptide (in words) (endogenous kindlin-2): lost

Kd (kindlin-2): 4.9 ± 0.7 µM
Molecule: HDRREFAKFEKEKMNAKWDTGENPIAKSAVTTVVNPKYEGK [β1-Y783A]

Kd [1]: 100 ± 15 µM
Kd (kindlin-2): 151 ± 1 µM
Molecule: HDRREFAKFEKEKMNAKWDTGENPIYKSAVAAVVNPKYEGK [β1-TT/AA]

binding of the anti-β1-pTpT antibody to the immobilized peptide (in words) [2]: detected binding
binding of the anti-β1-pTpT antibody to the immobilized peptide (in words) [3]: detected binding
Molecule: KWDTGENPIYKEAVpTpTFTVDFTFNKFNPKYEGK-OH [β3/β5-pTpT, chimeric β3/β5-pTpT peptide]

binding of the anti-β1-pTpT antibody to the immobilized peptide (in words) [2]: detected binding
binding of the anti-β1-pTpT antibody to the immobilized peptide (in words) [3]: detected binding
Molecule: LLQEKGGYIPSGPIpTpTIHENEVVKSPSQPG-OH [Wwc2-pTpT, unrelated peptide with a bi-phosphorylated double-threonine motif derived from the cytosolic scaffolding protein Wwc2]

binding in percent of that to β1-WT (densitometry) [4]: 27%
Molecule: endogenous kindlin-2 (from UniProt Q8CIB5 1-680) (natural protein)

percent of binding probability experiments with more than one unbinding event (FNIII7-10^ΔRGD): < 3%
percent of binding probability experiments with multiple unbinding events (FNIII7-10^RGD): 7.7%
Molecule: β1-TT/AA integrin on β1-KO fibroblasts (from UniProt P09055 21-798) (receptor)

percent of binding probability experiments with more than one unbinding event (FNIII7-10^ΔRGD): < 3%
percent of binding probability experiments with multiple unbinding events (FNIII7-10^RGD): 3.8%
Molecule: β1-TT/DD integrin on β1-KO fibroblasts (from UniProt P09055 21-798) (receptor)

percent of binding probability experiments with more than one unbinding event (FNIII7-10^ΔRGD): < 3%
percent of binding probability experiments with multiple unbinding events (FNIII7-10^RGD): 4.6%
Molecule: β1-TT/EE integrin on β1-KO fibroblasts (from UniProt P09055 21-798) (receptor)

percent of binding probability experiments with more than one unbinding event (FNIII7-10^ΔRGD): < 3%
percent of binding probability experiments with multiple unbinding events (FNIII7-10^RGD): 32.3%
Molecule: β1-WT integrin on β1-KO fibroblasts (β1-class integrins) (from UniProt P09055 21-798) (receptor)

Kd [5]: 140 µM
Molecule: HDRREFAKFEKEKMNAKWDTGENPIYKSAV[pT][pT]VVNPKYEGK (also: Atto488 label, position not given here) [β1-pTpT peptide, Atto488-labeled]

Kd [5]: 170 µM
Molecule: HDRREFAKFEKEKMNAKWDTGENPIYKSAVDDVVNPKYEGK (also: Atto488 label, position not given here) [β1-TT/DD peptide, Atto488-labeled]

Kd (recombinant kindlin-2): 4.9 µM
Molecule: HDRREFAKFEKEKMNAKWDTGENPIAKSAVTTVVNPKYEGK (also: Atto488 label, position not given here) [β1-Y783A peptide, Atto488-labeled]

Kd [5]: 140 µM
Molecule: HDRREFAKFEKEKMNAKWDTGENPIYKSAVTTVVNPKYEGK (also: Atto488 label, position not given here) [β1-WT peptide, Atto488-labeled]

Kd [5]: 100 µM
Kd (recombinant kindlin-2): 151 µM
Molecule: HDRREFAKFEKEKMNAKWDTGENPIYKSAVAAVVNPKYEGK (also: Atto488 label, position not given here) [β1-TT/AA peptide, Atto488-labeled]
